Common to all, as to assay: ELISA
Assay [1] addresses CD16A-158F-mFc (CD16A carrying the 158F isoform, monomeric Fc fusion) (Homo sapiens, allotype 158F, UniProt P08637).
Assay [2] deals with T1, recombinant CD16A-mFc (CD16A-158V extracellular domain fused to monomeric Fc) (Homo sapiens, allotype 158V, UniProt P08637, strain).
Assay [3] concerns the target recombinant CD32A ectodomain (Homo sapiens (assumed), UniProt P12318).
Assay [4] has as its target recombinant CD32B ectodomain (Homo sapiens (assumed), UniProt P31994).
In assay [5] the target is recombinant CD64A ectodomain (Homo sapiens (assumed), UniProt P12314).
The target of assay [6] is recombinant CD16B ectodomain (Homo sapiens, UniProt O75015).
In assay [7] the target is T1, recombinant CD16A-mFc (CD16A-158V …). The source holds these as a separate data set.

We go through two molecules from article PMC6957250 (Experimental and molecular pathology, 2016).

Read-outs that look alike come from different tables or passages of the source.

T1 sequence (P08637 17-208, change not shown): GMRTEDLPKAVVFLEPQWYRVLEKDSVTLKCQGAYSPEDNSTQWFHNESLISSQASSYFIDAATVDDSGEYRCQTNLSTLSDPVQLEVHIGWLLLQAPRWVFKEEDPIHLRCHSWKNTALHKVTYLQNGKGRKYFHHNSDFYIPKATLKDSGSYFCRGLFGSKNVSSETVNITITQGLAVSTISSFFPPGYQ
Sequence of recombinant CD32A ectodomain (P12318 34-217): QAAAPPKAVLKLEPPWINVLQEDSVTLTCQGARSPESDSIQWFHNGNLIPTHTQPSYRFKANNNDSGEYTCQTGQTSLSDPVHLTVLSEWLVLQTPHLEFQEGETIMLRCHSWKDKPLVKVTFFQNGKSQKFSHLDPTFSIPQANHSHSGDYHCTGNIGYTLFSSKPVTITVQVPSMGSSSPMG
Sequence of recombinant CD32B ectodomain (P31994 43-217): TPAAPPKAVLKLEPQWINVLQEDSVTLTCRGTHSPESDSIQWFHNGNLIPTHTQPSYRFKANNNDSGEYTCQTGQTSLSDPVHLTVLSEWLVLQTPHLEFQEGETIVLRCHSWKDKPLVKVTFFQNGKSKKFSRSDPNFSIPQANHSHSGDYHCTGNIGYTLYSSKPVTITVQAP
Sequence of recombinant CD16B ectodomain (O75015 whole entry, looked up, the tested form may be a part): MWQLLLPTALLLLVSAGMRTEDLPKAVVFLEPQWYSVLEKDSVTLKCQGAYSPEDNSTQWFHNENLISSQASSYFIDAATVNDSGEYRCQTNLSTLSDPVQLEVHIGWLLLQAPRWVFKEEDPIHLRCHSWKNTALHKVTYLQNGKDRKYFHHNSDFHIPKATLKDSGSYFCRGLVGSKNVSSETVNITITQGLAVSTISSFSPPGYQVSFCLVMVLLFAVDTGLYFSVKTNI
Sequence of recombinant CD64A ectodomain (P12314 16-292): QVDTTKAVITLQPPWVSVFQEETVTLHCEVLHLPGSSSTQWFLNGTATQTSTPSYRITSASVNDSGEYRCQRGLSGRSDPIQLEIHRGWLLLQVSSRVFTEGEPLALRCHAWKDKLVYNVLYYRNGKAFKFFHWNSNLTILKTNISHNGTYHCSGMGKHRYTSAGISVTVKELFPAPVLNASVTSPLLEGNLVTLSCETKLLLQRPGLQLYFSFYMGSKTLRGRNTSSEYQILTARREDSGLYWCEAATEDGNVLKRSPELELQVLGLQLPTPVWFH
Sequence of CD16A-158F-mFc (CD16A carrying the 158F isoform, monomeric Fc fusion) (P08637 17-208): as the sequence (P08637 17-208, change not shown) above

B1: antibody domain D6 (VHH)
VH: EVQLVESGGGLVQPGGSLRLSCAASGFTFSNYGMSWVRQAPGKGLEWIGSIYYSGGSTNYNPSLKGSLVISRDNSKNTLYLQMNSLAEDTATYYCARESIDYWGQGTLVTVSS
In general, EC50 refers to the midpoint of the concentration-response curve. For B1, the binding result was “binds” in assay [1]; “no binding” in assay [3]; “no binding” in assay [4]; “no binding” in assay [5]; “no binding” in assay [6]. Besides, the figures for the EC50 in assay [2] and in assay [7] were 4 nM and ~60 nM, respectively.

B2: antibody domain E11 (VHH)
VH: EVQLVESGGGLVQPGGSLRLSCAASGFTFSSYGMSWVRQAPGKGLEWIGEVNHSGGSTNYNPSLKGSFVISRDNSKNTLYLQMNSLAEDTAVYYCARVGSFDFWGQGTLVTVSS
Consider B2, for which the binding result in assay [1] is reported as “binds”; in assay [3], “no binding”; in assay [4] it was “no binding”; in assay [5] it was “no binding”; in assay [6], “no binding”. In assay [2], the EC50 worked out at 8 nM.
